Assay results as given in patent publication US20240192215A1 (E AND S HEALTHCARE, published 2024).

How the values were obtained:
[1] = molecular target: T1, Peptide_004 (human); test: peptide microarray, 0.04 ug/mL
T1 construct: 15-mer on microarray; not native form, recombinant insert region
T1 peptide: AADVHSQHHHHHHHH
Procedure: (§1) 5, 1, 0.2, 0.04, 0.008 and 0.0016 μg/mL serial dilutions were incubated on a single multi-well microarray slide at 30° C. for 1 hour. The slide includes 21 individual mini-arrays (one mini-array per sample dilution).
(§2) DyLight 650 was used as a label. False-positive binding to a peptide was evaluated by performing one additional control incubation in which only a secondary antibody was applied on the same microarray slide. Before performing each step, the microarrays were washed with a washing buffer.

[2] = molecular target: T2, Peptide_005 (human); test: peptide microarray, 0.04 ug/mL
T2 construct: 15-mer on microarray; not native form, recombinant insert region
T2 peptide: ADVHSQHHHHHHHHV
Procedure: as §1, §2

[3] = molecular target: T3, Peptide_015 (human); test: peptide microarray, 0.2 ug/mL
T3 construct: 15-mer on microarray; not native form, includes recombinant insert region
T3 peptide: HHHHVKQIESKTAFQ
Procedure: as §1, §2

[4] = molecular target: T4, Peptide_019 (human); test: peptide microarray, 0.2 ug/mL
T4 construct: 15-mer of hTrx1 on microarray
T4 peptide: VKQIESKTAFQEALD
Procedure: as §1, §2

[5] = molecular target: T5, Peptide_025 (human); test: peptide microarray, 0.2 ug/mL
T5 construct: 15-mer of hTrx1 on microarray
T5 peptide: KTAFQEALDAAGDKL
Procedure: as §1, §2

[6] = molecular target: T6, Peptide_085 (human); test: peptide microarray, 0.2 ug/mL
T6 construct: 15-mer of hTrx1 on microarray
T6 peptide: ECEVKCMPTFQFFKK
Procedure: as §1, §2

[7] = molecular target: T7, Peptide_012 (human); test: peptide microarray, 0.04 ug/mL
T7 construct: 15-mer on microarray; not native form, includes recombinant insert region
T7 peptide: HHHHHHHVKQIESKT
Procedure: as §1, §2

[8] = molecular target: T8, Peptide_013 (human); test: peptide microarray, 0.04 ug/mL
T8 construct: 15-mer on microarray; not native form, includes recombinant insert region
T8 peptide: HHHHHHVKQIESKTA
Procedure: as §1, §2

[9] = molecular target: T9, Peptide_014 (human); test: peptide microarray, 0.04 ug/mL
T9 construct: 15-mer on microarray; not native form, includes recombinant insert region
T9 peptide: HHHHHVKQIESKTAF
Procedure: as §1, §2

[10] = molecular target: T3, Peptide_015; test: peptide microarray, 0.04 ug/mL
Procedure: as §1, §2

[11] = molecular target: T10, Peptide_018 (human); test: peptide microarray, 0.04 ug/mL
T10 construct: 15-mer on microarray; not native form, includes recombinant insert region; also called HVKQIESKTAFQEAL
T10 peptide: HVKQIESKTAFQEAL
Procedure: as §1, §2

[12] = molecular target: T4, Peptide_019; test: peptide microarray, 0.04 ug/mL
Procedure: as §1, §2

[13] = molecular target: T11, Peptide_020 (human); test: peptide microarray, 0.04 ug/mL
T11 construct: 15-mer of hTrx1 on microarray
T11 peptide: KQIESKTAFQEALDA
Procedure: as §1, §2

[14] = molecular target: T12, Peptide_021 (human); test: peptide microarray, 0.04 ug/mL
T12 construct: 15-mer of hTrx1 on microarray
T12 peptide: QIESKTAFQEALDAA
Procedure: as §1, §2

[15] = molecular target: T13, Peptide_022 (human); test: peptide microarray, 0.04 ug/mL
T13 construct: 15-mer of hTrx1 on microarray
T13 peptide: IESKTAFQEALDAAG
Procedure: as §1, §2

[16] = molecular target: T14, Peptide_023 (human); test: peptide microarray, 0.04 ug/mL
T14 construct: 15-mer of hTrx1 on microarray
T14 peptide: ESKTAFQEALDAAGD
Procedure: as §1, §2

[17] = molecular target: T15, Peptide_024 (human); test: peptide microarray, 0.04 ug/mL
T15 construct: 15-mer of hTrx1 on microarray
T15 peptide: SKTAFQEALDAAGDK
Procedure: as §1, §2

[18] = molecular target: T5, Peptide_025; test: peptide microarray, 0.04 ug/mL
Procedure: as §1, §2

[19] = molecular target: T16, Peptide_045 (human); test: peptide microarray, 0.04 ug/mL
T16 construct: 15-mer of hTrx1 on microarray
T16 peptide: SATWCGPCKMIKPFF
Procedure: as §1, §2

[20] = molecular target: T17, Peptide_051 (human); test: peptide microarray, 0.04 ug/mL
T17 construct: 15-mer of hTrx1 on microarray
T17 peptide: PCKMIKPFFHSLSEK
Procedure: as §1, §2

[21] = molecular target: T18, Peptide_084 (human); test: peptide microarray, 0.04 ug/mL
T18 construct: 15-mer of hTrx1 on microarray
T18 peptide: SECEVKCMPTFQFFK
Procedure: as §1, §2

[22] = molecular target: T6, Peptide_085; test: peptide microarray, 0.04 ug/mL
Procedure: as §1, §2

[23] = molecular target: T19, Peptide_086 (human); test: peptide microarray, 0.04 ug/mL
T19 construct: 15-mer of hTrx1 on microarray
T19 peptide: CEVKCMPTFQFFKKG
Procedure: as §1, §2

[24] = molecular target: T20, Peptide_092 (human); test: peptide microarray, 0.04 ug/mL
T20 construct: 15-mer of hTrx1 on microarray
T20 peptide: PTFQFFKKGQKVGEF
Procedure: as §1, §2

[25] = molecular target: T21, Peptide_093 (human); test: peptide microarray, 0.04 ug/mL
T21 construct: 15-mer of hTrx1 on microarray
T21 peptide: TFQFFKKGQKVGEFS
Procedure: as §1, §2

[26] = molecular target: T22, Peptide_094 (human); test: peptide microarray, 0.04 ug/mL
T22 construct: 15-mer of hTrx1 on microarray
T22 peptide: FQFFKKGQKVGEFSG
Procedure: as §1, §2

[27] = molecular target: T23, Peptide_095 (human); test: peptide microarray, 0.04 ug/mL
T23 construct: 15-mer of hTrx1 on microarray
T23 peptide: QFFKKGQKVGEFSGA
Procedure: as §1, §2

[28] = molecular target: T24, Peptide_016; test: peptide microarray, anti-mouse IgG DyLight 650, MMC2 heatmap (Example 17)
T24 peptide: HHHVKQIESKTAFQE

[29] = molecular target: T25, Peptide_071; test: as above
T25 construct: also called FLEVDVDDCQDVASE
T25 peptide: FLEVDVDDCQDVASE

[30] = molecular target: T26, Peptide_072; test: as above
T26 peptide: LEVDVDDCQDVASEC

[31] = molecular target: T27, Peptide_075; test: as above
T27 peptide: DVDDCQDVASECEVK

[32] = molecular target: T28, Peptide_082; test: as above
T28 peptide: VASECEVKCMPTFQF

[33] = molecular target: T29, Peptide_103; test: as above
T29 peptide: VGEFSGANKEKLEAT

[34] = molecular target: T30, Peptide_107; test: as above
T30 peptide: SGANKEKLEATINEL

B1: monoclonal antibody B266-1 (antibody, human IgG1)
light: QIVLTQSPAIMSASPGEKVTMTCSASSRISYMYWYQQKPGTSPKRWIYDTSKLASGVPARFSGSGSGTSYSLTISTMEAEDAATYYCHQRSSYPTFGAGTKLELKSVAAPSVFIFPPSDEQLKSGTASVVCLLNNFYPREAKVQWKVDNALQSGNSQESVTEQDSKDSTYSLSSTLTLSKADYEKHKVYACEVTHQGLSSPVTKSFNRGEC
heavy: not shown
notes: B266 with the Fc part changed to human IgG1; also called B266-1 (Trx1-hIgG1); B266-1 (hTrx1-hIgG1)
**Q.** How did the “signal (blank-control = 1)” value [1] turn out when B1 was run?
**A.** 1.14

**Q.** And the “signal (blank-control = 1)” value [2]?
**A.** 1.6

B2: monoclonal antibody B264 (antibody, mouse IgG1, kappa, V domains shown)
VH: QVQLQQSGAELARPGASVKMSCKASGYTFTSYTMHWVKQRPGQGLEWIGYINPTSDYTNYNQKFKDKATLTADKSSSTAYMQLSSLTSEDSAVYFCASEGGFLYYFDYWGQGTTLTVSS
VL: DVLMTQTPLSLPVSLGDQASISCRSSQSIVHSNGNTYLEWYLQKPGQSPKLLIYKVSNRFSGVPDRFSGSGSGTDFTLKISRVEAEDLGVYYCFQGSHVPYTFGGGTKLEIKR
notes: also called AB264; B264 (Trx1-mIgG1)
**Q.** With B2 as the binder, how does the “signal (blank-control = 1)” value [3] read?
**A.** 2.5

**Q.** What about the “signal (blank-control = 1)” value [4] of the same binder?
**A.** 1.48

**Q.** What about the “signal (blank-control = 1)” value [5] of the same binder?
**A.** 4.9

**Q.** And the “signal (blank-control = 1)” value [6]?
**A.** 2.23

**Q.** What about the “signal (blank-control = 1)” value [7] of the same binder?
**A.** 1.15

**Q.** What about the “signal (blank-control = 1)” value [8] of the same binder?
**A.** 1.4

**Q.** And the “signal (blank-control = 1)” value [9]?
**A.** 1.49

**Q.** And the “signal (blank-control = 1)” value [10]?
**A.** 1.69

**Q.** And the “signal (blank-control = 1)” value [11]?
**A.** 1.64

**Q.** And the “signal (blank-control = 1)” value [12]?
**A.** 1.2

**Q.** And the “signal (blank-control = 1)” value [13]?
**A.** 1.33

**Q.** What about the “signal (blank-control = 1)” value [14] of the same binder?
**A.** 1.35

**Q.** And the “signal (blank-control = 1)” value [15]?
**A.** 2.89

**Q.** And the “signal (blank-control = 1)” value [16]?
**A.** 1.15

**Q.** What about the “signal (blank-control = 1)” value [17] of the same binder?
**A.** 2.38

**Q.** And the “signal (blank-control = 1)” value [18]?
**A.** 2.39

**Q.** And the “signal (blank-control = 1)” value [19]?
**A.** 4.59

**Q.** And the “signal (blank-control = 1)” value [20]?
**A.** 1.41

**Q.** And the “signal (blank-control = 1)” value [21]?
**A.** 1.83

**Q.** What about the “signal (blank-control = 1)” value [22] of the same binder?
**A.** 1.48

**Q.** And the “signal (blank-control = 1)” value [23]?
**A.** 1.14

**Q.** What about the “signal (blank-control = 1)” value [24] of the same binder?
**A.** 5.18

**Q.** What about the “signal (blank-control = 1)” value [25] of the same binder?
**A.** 2.46

**Q.** What about the “signal (blank-control = 1)” value [26] of the same binder?
**A.** 1.49

**Q.** And the “signal (blank-control = 1)” value [27]?
**A.** 1.66

**Q.** Does B2 bind [28]?
**A.** binds

**Q.** Does B2 bind [29]?
**A.** no binding (tested: 5 ug/mL)

**Q.** Does B2 bind [30]?
**A.** no binding (tested: 5 ug/mL)

**Q.** Does B2 bind [31]?
**A.** no binding (tested: 5 ug/mL)

**Q.** Does B2 bind [32]?
**A.** no binding (tested: 5 ug/mL)

**Q.** Does B2 bind [33]?
**A.** no binding (tested: 5 ug/mL)

**Q.** Does B2 bind [34]?
**A.** no binding (tested: 5 ug/mL)
